Assay results from US20240279622A1, “COELENTERAZINE-UTILIZING LUCIFERASES WITH STABLE GLOW-TYPE LIGHT EMISSION AND METHODS OF PRODUCING AND USING THEREOF” (MASARYKOVA UNIVERZITA, priority 2021, published 2024).
Substitutions are numbered along the chain they refer to. Numbers in names are those of the source. Where two headings read alike, the source gives them in different places.

B1: AncHLD-RLuc: Reconstructed most-likelihood ancestral protein of Renilla reniformis luciferase and haloalkane dehalogenases (protein)
chain: MVSASQRTTSTATGDEWWAKCKQVDVLDSEMSYYDSDPGKHKNTVIFLHGNPTSSYLWRNVIPHVEPLARCLAPDLIGMGKSGKLPNHSYRFVDHYRYLSAWFDSVNLPEKVTIVCHDWGSGLGFHWCNEHRDRVKGIVHMESVVSPLKGWESFPETARDIFQALRSEAGEEMVLKKNFFIERLLPSSIMRKLSEEEMDAYREPFVEPGESRRPTLTWPREIPIKGDGPEDVIEIVKSYNKWLSTSKDIPKLFINADPGFFSNAIKKVTKNWPNQKTVTVKGLHFLQEDSPEEIGEAIADFLNELTK
modifications: Ancestral protein of Renilla reniformis luciferase
B2: RLuc8: Eight-point mutant of RLuc (A55T, C124A, S130A, K136R, A143M, M185V, M253L, and S287L) (protein)
chain: MTSKVYDPEQRKRMITGPQWWARCKQMNVLDSFINYYDSEKHAENAVIFLHGNATSSYLWRHVVPHIEPVARCIIPDLIGMGKSGKSGNGSYRLLDHYKYLTAWFELLNLPKKIIFVGHDWGAALAFHYAYEHQDRIKAIVHMESVVDVIESWDEWPDIEEDIALIKSEEGEKMVLENNFFVETVLPSKIMRKLEPEEFAAYLEPFKEKGEVRRPTLSWPREIPLVKGGKPDVVQIVRNYNAYLRASDDLPKLFIESDPGFFSNAIVEGAKKFPNTEFVKVKGLHFLQEDAPDEMGKYIKSFVERVLKNEQ
modifications: RLuc8
B3: RLuc: Luciferase isolated from the sea pansy Renilla reniformis (protein)
chain: B2 chain with T55A, A124C, A130S, R136K, M143A, V185M, L253M, L287S
modifications: RLuc

Tests used:
[1] = Luminescence specific activity of the ancestral protein; type: biochemical; details: 7.9 μM coelenterazine, 37° C., compared to RLuc
Method: Both the coelenterazine substrate and the AncHLD-RLuc enzyme were dissolved in 100 mM potassium phosphate buffer pH 7.5 and their resulting concentrations in the reaction mixture were 7.9 μM coelenterazine, 1.5 nM RLuc, and 2.8 μM AncHLD-RLuc. Bioluminescence activity traces were collected at 37° C. over the first 72.5 seconds immediately after injection of the substrate into the enzyme solution. The activity of each enzyme sample was measured in at least three independent experiments. The collected luminescence curves were integrated to obtain a linear increase of cumulative luminescence over time, while the slope gave the final value of activity, represented in RLU·s^−1. For each enzyme, the calculated activity was related to one milligram of the enzyme to get the final value of specific activity in RLU·s^−1·mg^−1.

[2] = Thermal unfolding by NanoDSF (tryptophan fluorescence); type: physicochemical; details: for Tm / Tonset: 100 mM potassium phosphate buffer pH 7.5, 1° C./min
Method: Thermal unfolding was studied using NanoDSF Prometheus (NanoTemper, Germany) by monitoring tryptophan fluorescence over the temperature range of 20 to 90° C., at a heating rate of 1° C./min. The melting temperatures (Tonset and Tm) were evaluated directly by ThermControl v2.0.2.

[3] = Stopped-flow pre-steady-state kinetics of substrate binding (tryptophan fluorescence quenching); details: 15° C.; for k+1: pH 7.5, induced-fit binding mechanism
Method: The measurement was performed at 15° C. in 100 mM potassium phosphate buffer pH 7.5. Rapid mixing of the components was achieved using the Stopped-Flow SFM 3000 combined with the MOS-500 spectrometer (BioLogic, France). The reaction was initiated by mixing 75 μL of an enzyme with 75 μL of coelenterazine and then monitored by the change of native tryptophan fluorescence (295 nm excitation, 340±13 nm emission). The fluorescence changes were caused by the quenching effect of the coelenterazine substrate upon its binding by an enzyme. The experiment was designed in two different modes, varying either the concentration of the coelenterazine substrate or the concentration of an enzyme. Each kinetic trace was measured in seven consecutive replicates and averaged. The concentration of coelenterazine in the final reaction mixture ranged from 0.9 to 90 μM while the concentration of luciferase enzymes ranged from 0.4 to 94 μM.
The collected double-exponential kinetic traces were fitted globally with the KinTek Explorer (KinTek Corporation, USA). The software allows for the input of a given kinetic model via a simple text description, and the program then derives the differential equations needed for numerical integration automatically. Numerical integration of rate equations searching a set of kinetic parameters that produce a minimum χ^2 value was performed using the Bulirsch-Stoer algorithm with adaptive step size, and nonlinear regression to fit data was based on the Levenberg-Marquardt method. Residuals were normalized by sigma values for each data point. The standard error was calculated from the covariance matrix during nonlinear regression. In addition to standard error values, more rigorous analysis of the variation of the kinetic parameters was accomplished by confidence contour analysis by using FitSpace Explorer (KinTek Corporation, USA). In these analyses, the lower and upper limits for each parameter were derived from the confidence contour obtained from setting the χ^2 threshold at 0.95.
The time-course of the fluorescence quenching upon substrate binding was described with Equation (7) according to the induced-fit binding mechanism and the mechanism was fit directly to the collected kinetic data to obtain the values of elementary rate constants describing the substrate binding process. The quality of the best fits was compared in terms of χ^2 values, “chi-by-eye” assessment, and confidence contour analysis assessing constraint and independency of the determined parameters which confirmed that the obtained values are well-defined by the collected kinetic data.

[4] = Steady-state kinetic analysis of full-conversion cumulative luminescence curves; type: biochemical
Method: Each luminescence trace was measured in 3 repetitions. The concentration of coelenterazine in the final reaction mixture ranged from 0.2 to 7.9 μM while the concentration of luciferase enzymes ranged from 17 to 640 nM.
An updated protocol applying new standards for collecting and fitting steady-state kinetic data was used. Unlike the classical initial velocity analysis, which requires a sophisticated luminometer calibration and quantum yield evaluation, luminescence data were recorded when letting the reaction proceed to completion beyond the initial linear phase. The recorded luminescence traces (rate vs. time) were transformed to reaction progress curves corresponding to cumulative luminescence in time. The transformed kinetic data (product vs. time) were fitted globally with the KinTek Explorer (KinTek Corporation, USA). The software allows for the input of a given kinetic model via a simple text description, and the program then derives the differential equations needed for numerical integration automatically.
Numerical integration of rate equations searching a set of kinetic parameters that produce a minimum χ^2 value was performed using the Bulirsch-Stoer algorithm with adaptive step size, and nonlinear regression to fit data was based on the Levenberg-Marquardt method. To account for fluctuations in experimental data, enzyme or substrate concentrations were slightly adjusted (5%) to derive best fits. Residuals were normalized by sigma values for each data point. The standard error was calculated from the covariance matrix during nonlinear regression. In addition to standard error values, more rigorous analysis of the variation of the kinetic parameters was accomplished by confidence contour analysis by using FitSpace Explorer (KinTek Corporation, USA). In these analyses, the lower and upper limits for each parameter were derived from the confidence contour obtained from setting χ^2 threshold at 0.9. The scaling factor, relating luminescence signal to product concentration, was applied as one of the fitted parameters, well constrained by end-point levels of kinetic traces recorded at particular substrate concentrations. Depletion of the available substrate after the reaction was ensured by repeated injection of the fresh enzyme.
The steady-state model, described by Equation (4), was used to obtain the values of turnover number kcat, Michaelis constant Km, and equilibrium dissociation constant for enzyme-product complex Kp. A conservative estimate for diffusion-limited substrate and product binding k1 and k3 (100 μM^−1·s^−1) was used as a fixed value to mimic the rapid equilibrium assumption. An alternative form of the model, described by Equation (5), was used to obtain estimates of kcat/Km directly by setting k−1=0.

[5] = pH 7.5
Method: Solid coelenterazine was dissolved in ice-cold ethanol and stored under a nitrogen atmosphere in dark glass vials at −20° C. Before each measurement, the concentration and maintained quality of the ethanol stock solutions were verified spectrophotometrically. A buffer solution of coelenterazine was prepared by mixing an appropriate volume of the ethanol stock solution with 100 mM phosphate buffer pH 7.5 immediately before the measurement. Tested luciferase enzyme samples were dissolved in the same 100 mM phosphate buffer pH 7.5. The enzymatic reaction was initiated inside the microplate reader FLUOstar OPTIMA (BMG Labtech, Germany) by the automatic addition of 225 μL buffer solution of coelenterazine into a microplate well containing 25 μL of enzyme solution. The resulting bioluminescence activity traces were collected at 37° C. until the luminescence intensity decreased to less than 0.5% of its maximal measured value. Each luminescence trace was measured in 3 repetitions. The concentration of coelenterazine in the final reaction mixture was 2.2 μM while the concentration of luciferase enzymes was 50 nM. The obtained luminescence kinetic data were fitted to an exponential decay or a logistic model using Origin 6.1 (OriginLab, USA) and the value of half-life t1/2, defined as the time when the initial luminescence signal decreased to 50%, was calculated.

[6] = Anaerobic equilibrium binding of coelenterazine substrate (fluorescence)
Method: The experiments were performed under strictly anaerobic conditions to prevent enzymatic oxidation of interacting ligands. To do so, all the equipment and material, including water, buffer, pipettes, tips, syringes, microplates, and sealing, were made anaerobic by incubating them overnight in the anaerobic glovebox Belle MR2 (Belle Technology, UK). The box was filled with ultra-high purity (UHP) nitrogen atmosphere containing the residual oxygen concentration of 2.3 ppm, as determined by the oxygen meter O2M-3 (Belle Technology, UK). Liquids were aliquoted to the volume of maximally 50 mL and were stirred overnight in the box to release any dissolved oxygen. Two hours prior to the experiment, a closed bottle with an evacuated lyophilized enzyme (oxygen depleted) was put into the glovebox, dissolved with anaerobic water, and incubated to remove any remaining oxygen possibly dissolved in the solution. Similarly, the stock solution of coelenterazine or coelenteramide in ethanol, which was long-term stored in a freezer under the nitrogen atmosphere without oxygen, was put into the glovebox in a closed bottle. A small aliquot of coelenterazine/coelenteramide was transferred into a new empty bottle and kept open for about 20 minutes to remove the remaining dissolved oxygen. After the incubation, a few microliters of an enzyme were mixed with the same amount of coelenterazine, and the mixture was visually inspected for any possible bioluminescence. If no light was observed and the mixture remained yellow even after a minute, all the reagents were ready for anaerobic measurements.
(§1) In the anaerobic glovebox, 200 μL of a differently concentrated enzyme was put into a separate well in a microplate and into each of these wells, 5 μL of coelenterazine or coelenteramide stock solution was added. As a blank, 200 μL of the enzyme was mixed with 5 μL of ethanol for each enzyme concentration. […] The extent of coelenterazine binding at each concentration was determined by measuring fluorescence spectra ranging from 480 to 580 nm upon excitation at 420 nm using the microplate spectrophotometer Varioskan LUX (Thermo Scientific, USA). Binding of coelenteramide was monitored by measuring fluorescence spectra ranging from 350 to 700 nm upon excitation at 330 nm. […]
The obtained fluorescence spectra were visually inspected for characteristic peaks, and the value of the maximal fluorescence intensity Fluomax at these peaks was plotted against the enzyme concentration. The final value of the dissociation constant Kd was determined by fitting the dependence with the hyperbolic Equation (8) using the software Origin 6.1 (OriginLab, USA).

[7] = compared to RLuc; cited from earlier work
[8] = Anaerobic equilibrium binding of coelenteramide product (fluorescence); details: pH 7.5, 30° C., read-out: Dissociation constant Kd, Coelenteramide product
Method: The experiments were performed under strictly anaerobic conditions to prevent enzymatic oxidation of interacting ligands. To do so, all the equipment and material, including water, buffer, pipettes, tips, syringes, microplates, and sealing, were made anaerobic by incubating them overnight in the anaerobic glovebox Belle MR2 (Belle Technology, UK). The box was filled with ultra-high purity (UHP) nitrogen atmosphere containing the residual oxygen concentration of 2.3 ppm, as determined by the oxygen meter O2M-3 (Belle Technology, UK). Liquids were aliquoted to the volume of maximally 50 mL and were stirred overnight in the box to release any dissolved oxygen. […] If no light was observed and the mixture remained yellow even after a minute, all the reagents were ready for anaerobic measurements.
as §1, with “added.” for “added. As a blank, 200 μL of the enzyme was mixed with 5 μL of ethanol for each enzyme concentration.”

[9] = from Loening et al. (2006); cited from earlier work

Molecule | Bioluminescence activity lower than the modern luciferase enzyme [1] | Tm [2] | Tonset [2] | Apparent melting temperature higher than RLuc ([2]; difference to RLuc) | k−1 ([3]; pH 7.5) | k+1 [3] | kcat ([4]; 100 mM phosphate buffer pH 7.5, 37° C.) | Kd ([4]; 100 mM phosphate buffer pH 7.5, 37° C., read-out: Kp (equilibrium dissociation constant for enzyme-product complex)) | Glow-type effectivity ([4]; kcat/Km divided by Km/Kp) | Half-life (t1/2) [5] | k+2 ([3]; pH 7.5) | k−2 ([3]; pH 7.5) | Kd ([6]; anaerobic, pH 7.5, 30° C., read-out: Dissociation constant Kd, Coelenterazine substrate) | Kd ratio substrate/product ([6]; ratio) | Bioluminescence activity improvement [7] | Kd [8] | kcat [9]
B1 | > 100,000 fold | 64.9 ± 0.1 °C | 57.4 ± 0.1 °C | 21.2 °C | 0.118 ± 0.071 s⁻¹ | 3000 ± 3000 M⁻¹ s⁻¹ |  |  |  |  |  |  |  |  |  |  | 
B2 |  | 45.0 ± 0.1 °C | 35.2 ± 0.1 °C |  | 305 ± 5 s⁻¹ | 2.35e+06 ± 40000 M⁻¹ s⁻¹ | 4.7 ± 0.1 s⁻¹ | 1.18 ± 0.05 µM | 2.3 ± 0.2 | 6.36 ± 0.06 s | 26.6 ± 1.1 s⁻¹ | 23.4 ± 0.2 s⁻¹ | 37 ± 15 µM | 1.7 ± 0.7 | 4.3 fold | 22 ± 2 µM | 
B3 |  | 43.7 ± 0.1 °C | 36.3 ± 0.2 °C |  |  |  |  |  |  | 16.4 ± 0.06 s |  |  |  |  |  |  | 3.9 ± 0.4 s⁻¹
